Results as given in patent US5786191A, “Cloning and expression of complementary DNAs for multiple members of the human cytochrome P450 2C subfamily” (priority 1994, dated 1998).

B1: 2C18-Thr^385 (29c): recombinant 2C18 allelic variant 29c (Thr 385) in yeast microsomes; Table III does not state residue 2 (protein, UniProt P33260 26-490, looked up)
Cytochrome P450 2C18: RGRLPSGPTPLPIIGNILQLDVKDMSKSLTNFSKVYGPVFTVYFGLKPIVVLHGYEAVKEALIDHGEEFSGRGSFPVAEKVNKGLGILFSNGKRWKEIRRFCLMTLRNFGMGKRSIEDRVQEEARCLVEELRKTNASPCDPTFILGCAPCNVICSVIFHDRFDYKDQRFLNLMEKFNENLRILSSPWIQVCNNFPALIDYLPGSHNKIAENFAYIKSYVLERIKEHQESLDMNSARDFIDCFLIKMEQEKHNQQSEFTVESLIATVTDMFGAGTETTSTTLRYGLLLLLKYPEVTAKVQEEIECVVGRNRSPCMQDRSHMPYTDAVVHEIQRYIDLLPTNLPHAVTCDVKFKNYLIPKGTTIITSLTSVLHNDKEFPNPEMFDPGHFLDKSGNFKKSDYFMPFSAGKRMCMGEGLARMELFLFLTTILQNFNLKSQVDPKDIDITPIANAFGRVPPLYQLCFIPV
B2: 2C18-Asp^2 Thr^385 (29c-1a): recombinant human P450 2C18 allelic variant 29c with correct Asp at position 2, Thr at 385 (protein, UniProt P33260 26-490, looked up)
Cytochrome P450 2C18: B1 Cytochrome P450 2C18
B3: 2C9: recombinant human P450 2C9, allele not specified in the sentence (protein, UniProt P11712 1-490, looked up)
Cytochrome P450 2C9: MDSLVVLVLCLSCLLLLSLWRQSSGRGKLPPGPTPLPVIGNILQIGIKDISKSLTNLSKVYGPVFTLYFGLKPIVVLHGYEAVKEALIDLGEEFSGRGIFPLAERANRGFGIVFSNGKKWKEIRRFSLMTLRNFGMGKRSIEDRVQEEARCLVEELRKTKASPCDPTFILGCAPCNVICSIIFHKRFDYKDQQFLNLMEKLNENIKILSSPWIQICNNFSPIIDYFPGTHNKLLKNVAFMKSYILEKVKEHQESMDMNNPQDFIDCFLMKMEKEKHNQPSEFTIESLENTAVDLFGAGTETTSTTLRYALLLLLKHPEVTAKVQEEIERVIGRNRSPCMQDRSHMPYTDAVVHEVQRYIDLLPTSLPHAVTCDIKFRNYLIPKGTTILISLTSVLHDNKEFPNPEMFDPHHFLDEGGNFKKSKYFMPFSAGKRICVGEALAGMELFLFLTSILQNFNLKSLVDPKNLDTTPVVNGFASVPPFYQLCFIPV
B4: 2C9 Purified from Human Liver: cytochrome P450 2C9 purified from human liver microsomes (protein, UniProt P11712 1-490, looked up)
Cytochrome P450 2C9: B3 Cytochrome P450 2C9
B5: 2C9-Ile^359 (65): recombinant human P450 2C9 allelic variant, clone 65 (protein, UniProt P11712 1-490, looked up)
Cytochrome P450 2C9: B3 Cytochrome P450 2C9
B6: 2C8: recombinant human P450 2C8 (clones 7b and 7c, Thr^130 Ile^264 variant) expressed in yeast (protein, UniProt P10632 1-490, looked up)
Cytochrome P450 2C8: MEPFVVLVLCLSFMLLFSLWRQSCRRRKLPPGPTPLPIIGNMLQIDVKDICKSFTNFSKVYGPVFTVYFGMNPIVVFHGYEAVKEALIDNGEEFSGRGNSPISQRITKGLGIISSNGKRWKEIRRFSLTTLRNFGMGKRSIEDRVQEEAHCLVEELRKTKASPCDPTFILGCAPCNVICSVVFQKRFDYKDQNFLTLMKRFNENFRILNSPWIQVCNNFPLLIDCFPGTHNKVLKNVALTRSYIREKVKEHQASLDVNNPRDFIDCFLIKMEQEKDNQKSEFNIENLVGTVADLFVAGTETTSTTLRYGLLLLLKHPEVTAKVQEEIDHVIGRHRSPCMQDRSHMPYTDAVVHEIQRYSDLVPTGVPHAVTTDTKFRNYLIPKGTTIMALLTSVLHDDKEFPNPNIFDPGHFLDKNGNFKKSDYFMPFSAGKRICAGEGLARMELFLFLTTILQNFNLKSVDDLKNLNTTAVTKGIVSLPPSYQICFIPV
B7: 2C8 Purified from Human Liver: cytochrome P450 2C8 purified from human liver microsomes (protein, UniProt P10632 1-490, looked up)
Cytochrome P450 2C8: B6 Cytochrome P450 2C8
B8: 2C19: human cytochrome P450 2C19 polypeptide, clone 11a, SEQ ID NO:1, expressed recombinantly in yeast (protein)
chain: MDPFVVLVLCLSCLLLLSIWRQSSGRGKLPPGPTPLPVIGNILQIDIKDVSKSLTNLSKIYGPVFTLYFGLERMVVLHGYEVVKEALIDLGEEFSGRGHFPLAERANRGFGIVFSNGKRWKEIRRFSLMTLRNFGMGKRSIEDRVQEEARCLVEELRKTKASPCDPTFILGCAPCNVICSIIFQKRFDYKDQQFLNLMEKLNENIRIVSTPWIQICNNFPTIIDYFPGTHNKLLKNLAFMESDILEKVKEHQESMDINNPRDFIDCFLIKMEKEKQNQQSEFTIENLVITAADLLGAGTETTSTTLRYALLLLLKHPEVTAKVQEEIERVIGRNRSPCMQDRGHMPYTDAVVHEVQRYIDLIPTSLPHAVTCDVKFRNYLIPKGTTILTSLTSVLHDNKEFPNPEMFDPRHFLDEGGNFKKSNYFMPFSAGKRICVGEGLARMELFLFLTFILQNFNLKSLIDPKDLDTTPVVNGFASVPPFYQLCFIPV

Legend:
Type in all cases: biochemical
[1] = Mephenytoin 4'-hydroxylase assay, recombinant human CYP2C yeast microsomes, R-enantiomer; conditions: yeast microsomes + P450 reductase, phospholipid, cytochrome b5 2:1; 0.4 mM substrate; 37° C., 30 min; liver microsomes unfortified, phosphate buffer; means ± SE
Description: (§1) Purified or recombinant yeast microsomes (10-50 pmol) were preincubated with dilauroylphosphatidylcholine (15 μg per 50 pmol P450), P450 reductase (500 U per 50 mol P450), and human cytochrome b5 (2:1 molar ratio when added). The reconstituted mixture was preincubated for 5 min at 37° C., and then placed on ice. […] The mixture was then incubated at 37° with shaking for 3 min, and the reaction started with the addition of 2 mM NADPH and terminated after 30 min with an equal volume of methanol. […] Reaction volumes were generally 0.25 ml except when the volume of recombinant purified cytochrome or yeast microsomes was greater than 50 μl. In these cases, the volume was increased to 0.5 ml to limit the volume of glycerol from the purified preparation to <4% of the final volume.
(§2) At the end of the incubation period, the reactions were terminated with an equal volume of methanol. The incubation mixture was centrifuged at 10,000 g for 10 min and an aliquot assayed directly using HPLC without extraction. Samples with particularly low activity were concentrated by lyophilization and redissolved in a small volume of methanol:water (1:1) before assay. The HPLC system consisted of a reverse phase C18 (10 μm) Versapak, 300 mm×4.1 mm column (Altech Associates, Deerfield, Ill.) using an isocratic solvent consisting of methanol:water (45:55) with a flow rate was kept of 1 ml/min for 25 min.

[2] = Mephenytoin 4'-hydroxylase assay, recombinant human CYP2C yeast microsomes, S-enantiomer; conditions: for R/S Ratio of mephenytoin 4'-hydroxylase activity: recombinant yeast microsomes (Table III); for Mephenytoin 4'-Hydroxylase Activity, S: yeast microsomes + P450 reductase, phospholipid, cytochrome b5 2:1, 37° C., 30 min, liver microsomes unfortified, phosphate buffer
Description: as §1, §2

[3] = Tolbutamide hydroxylase assay, recombinant human CYP2C yeast microsomes; conditions: for Tolbutamide Hydroxylase Activity per mg protein: 1 mg yeast microsomal protein + P450 reductase, or 0.2 mg liver microsomal protein without reductase; for Tolbutamide Hydroxylase Activity per mg protein / Tolbutamide Hydroxylase Activity per nmol P450: means ± SE; for Tolbutamide Hydroxylase Activity per nmol P450: adjusted for P450 content
Description: Yeast microsomes (1 mg protein) were preincubated with 300 pmol hamster P450 reductase in 0.2 ml of the incubation buffer (below) for 3 min at 37° C. The reaction was then placed on ice and incubated in 0.2 ml of 50 mM HEPES buffer (pH 7.4) containing 1.5 mM MgCl2, 0.1 mM EDTA in a final volume of 1 ml and 1 mM sodium tolbutamide. The reaction was initiated with 0.5 mM NADPH. Human liver microsomes (0.22 mg protein) were incubated without reductase. Incubations with reconstituted recombinant P450s contained 50 pmol purified P450 enzyme, 150 pmol P450 reductase, and 15 μg dilauroylphosphatidylcholine, and were performed in 100 mM potassium phosphate buffer (pH 7.4). Reactions were terminated after 60 min at 37° C. by the addition of 50 μl of 4N HCl, followed by extraction with 3 ml of water-saturated ethyl acetate. […] The column eluate was monitored at 230 nm and rates of product formation were determined from standard curves prepared by adding varying amounts of 4-hydroxytolbutamide to incubations conducted without NADPH. […] Samples were analyzed in triplicate.

[4] = Mephenytoin 4'-hydroxylase assay, purified recombinant P450s in reconstituted system, R-enantiomer; conditions: triplicate, means ± SE, blank not subtracted
Description: as §1, §2

[5] = Mephenytoin 4'-hydroxylase assay, purified recombinant P450s in reconstituted system, S-enantiomer; conditions: for R/S Ratio of mephenytoin 4'-hydroxylase activity: purified P450s (Table IV); for Mephenytoin 4'-Hydroxylase Activity, S: purified P450s, triplicate, means ± SE, blank not subtracted
Description: as §1, §2

[6] = Tolbutamide hydroxylase assay, purified reconstituted P450s; conditions: blank (22 ± 5) subtracted, means ± SE
Description: Tolbutamide hydroxylase activity was measured according to Knodell et al., J. Pharmacol. Exper. Ther. 241:1112-1119 (1987), with several modifications. Yeast microsomes (1 mg protein) were preincubated with 300 pmol hamster P450 reductase in 0.2 ml of the incubation buffer (below) for 3 min at 37° C. The reaction was then placed on ice and incubated in 0.2 ml of 50 mM HEPES buffer (pH 7.4) containing 1.5 mM MgCl2, 0.1 mM EDTA in a final volume of 1 ml and 1 mM sodium tolbutamide. The reaction was initiated with 0.5 mM NADPH. Human liver microsomes (0.22 mg protein) were incubated without reductase. Incubations with reconstituted recombinant P450s contained 50 pmol purified P450 enzyme, 150 pmol P450 reductase, and 15 μg dilauroylphosphatidylcholine, and were performed in 100 mM potassium phosphate buffer (pH 7.4). Reactions were terminated after 60 min at 37° C. by the addition of 50 μl of 4N HCl, followed by extraction with 3 ml of water-saturated ethyl acetate. The ethyl acetate extracts were dried under nitrogen at 40° C., the residue resolubilized in 200 μl methanol, and 4-hydroxytolbutamide then assayed using HPLC by injecting 50 μl of the solubilized extract onto a μBONDAPAK C18 column (4.6×300 mm) using 0.05% phosphoric acid, pH 2.6: acetonitrile (6:4, v/v) as the mobile phase with a flow rate of 1 ml/min. The column eluate was monitored at 230 nm and rates of product formation were determined from standard curves prepared by adding varying amounts of 4-hydroxytolbutamide to incubations conducted without NADPH. […] Samples were analyzed in triplicate.

| Molecule | Mephenytoin 4'-Hydroxylase Activity, R [1] [nmol/min/nmol P450] | R/S Ratio of mephenytoin 4'-hydroxylase activity [2] | Mephenytoin 4'-Hydroxylase Activity, S ([2]; 0.4 mM substrate, means ± SE) | Mephenytoin 4'-Hydroxylase Activity, S, no b5 ([2]; yeast microsomes without cytochrome b5, 0.4 mM substrate, means ± SE) [nmol/min/nmol P450] | Tolbutamide Hydroxylase Activity per mg protein [3] [nmol/min/mg protein] | Tolbutamide Hydroxylase Activity per nmol P450 [3] [nmol/min/nmol P450] | Mephenytoin 4'-Hydroxylase Activity, R [4] [nmol/min/nmol P450] | R/S Ratio of mephenytoin 4'-hydroxylase activity [5] | Mephenytoin 4'-Hydroxylase Activity, S ([5]; reconstituted system) [nmol/min/nmol P450] | Turnover number of recombinant 2C9 relative to 2C9 purified from human liver ([5]; S-mephenytoin 4'-hydroxylation) | Tolbutamide Hydroxylase Activity [6] | Tolbutamide turnover number of Ile^359 allele relative to Leu^359 allele of 2C9 ([3]; recombinant microsomes adjusted for P450 content) [fold] | S-mephenytoin 4'-hydroxylation turnover relative to human liver microsomes ([5]; fold higher than human liver microsomes) | S-mephenytoin 4'-hydroxylation turnover relative to recombinant 2C9, 2C18 or 2C8 ([5]; purified, reconstituted system) | S-mephenytoin 4'-hydroxylase turnover relative to P450MP purified from human liver ([5]; vs literature value of Srivastava et al.) | Rate of S-hydroxylation relative to R-hydroxylation of mephenytoin ([2]; stereospecificity, yeast microsomes) | Mephenytoin 4'-Hydroxylase Activity, S ([2]; 0.4 mM substrate, means ± SE, listed as 2C19 (11a)) [nmol/min/nmol P450] |
| --- | --- | --- | --- | --- | --- | --- | --- | --- | --- | --- | --- | --- | --- | --- | --- | --- | --- |
| B1 | 0.054 ± 0.003 | 1.3 | 0.042 ± 0.004 nmol/min/nmol P450 | 0.034 ± 0.008 |  |  |  |  |  |  |  |  |  |  |  |  |  |
| B2 |  |  |  |  | 9.3 ± 0.7 | 0.19 ± 0.02 | 0.147 ± 0.025 | 1.3 | 0.116 ± 0.010 |  |  |  |  |  |  |  |  |
| B3 |  |  | 0.02 nmol/min/nmol P450 |  |  |  |  |  |  | ~ 100 times |  |  |  |  |  |  |  |
| B4 |  |  |  |  |  |  | 0.051 ± 0.007 | 1.6 | 0.033 ± 0.001 |  | 109 ± 16 pmol/min/nmol P450 |  |  |  |  |  |  |
| B5 | 0.041 ± 0.005 | 0.9 | 0.043 ± 0.000 nmol/min/nmol P450 |  | 169.8 ± 7.4 | 3.4 ± 0.15 | 0.063 ± 0.003 | 0.77 | 0.081 ± 0.006 |  | 122 + 29 pmol/min/nmol P450 | 3 |  |  |  |  |  |
| B6 | 0.016 ± 0.001 | 0.4 | 0.037 ± 0.001 nmol/min/nmol P450 |  | 8.5 ± 0.2 | 0.11 ± 0.003 | 0.023 ± 0.004 | 0.4 | 0.057 ± 0.009 |  | 12 ± 4 pmol/min/nmol P450 |  |  |  |  |  |  |
| B7 |  |  |  |  |  |  | 0.051 ± 0.030 | 1.6 | 0.032 ± 0.003 |  |  |  |  |  |  |  |  |
| B8 | 0.014 ± 0.02 | 0.03 | ~ 5 nmol/min/nmol P450 |  | 18.4 ± 2.4 |  | 0.19 ± 0.04 | 0.03 | 6.17 ± 0.24 |  |  |  | at least 10 times | 50-100 times | ~ 30 times | at least 30 fold | 4.6 ± 0.3 |
